Data taken from IntAct's records for PubMed 17919502.

B1: Copper-transporting ATPase 2 (Homo sapiens), P35670 (parent)
chain: MPEQERQITAREGASRKILSKLSLPTRAWEPAMKKSFAFDNVGYEGGLDGLGPSSQVATSTVRILGMTCQSCVKSIEDRISNLKGIISMKVSLEQGSATVKYVPSVVCLQQVCHQIGDMGFEASIAEGKAASWPSRSLPAQEAVVKLRVEGMTCQSCVSSIEGKVRKLQGVVRVKVSLSNQEAVITYQPYLIQPEDLRDHVNDMGFEAAIKSKVAPLSLGPIDIERLQSTNPKRPLSSANQNFNNSETLGHQGSHVVTLQLRIDGMHCKSCVLNIEENIGQLLGVQSIQVSLENKTAQVKYDPSCTSPVALQRAIEALPPGNFKVSLPDGAEGSGTDHRSSSSHSPGSPPRNQVQGTCSTTLIAIAGMTCASCVHSIEGMISQLEGVQQISVSLAEGTATVLYNPSVISPEELRAAIEDMGFEASVVSESCSTNPLGNHSAGNSMVQTTDGTPTSVQEVAPHTGRLPANHAPDILAKSPQSTRAVAPQKCFLQIKGMTCASCVSNIERNLQKEAGVLSVLVALMAGKAEIKYDPEVIQPLEIAQFIQDLGFEAAVMEDYAGSDGNIELTITGMTCASCVHNIESKLTRTNGITYASVALATSKALVKFDPEIIGPRDIIKIIEEIGFHASLAQRNPNAHHLDHKMEIKQWKKSFLCSLVFGIPVMALMIYMLIPSNEPHQSMVLDHNIIPGLSILNLIFFILCTFVQLLGGWYFYVQAYKSLRHRSANMDVLIVLATSIAYVYSLVILVVAVAEKAERSPVTFFDTPPMLFVFIALGRWLEHLAKSKTSEALAKLMSLQATEATVVTLGEDNLIIREEQVPMELVQRGDIVKVVPGGKFPVDGKVLEGNTMADESLITGEAMPVTKKPGSTVIAGSINAHGSVLIKATHVGNDTTLAQIVKLVEEAQMSKAPIQQLADRFSGYFVPFIIIMSTLTLVVWIVIGFIDFGVVQRYFPNPNKHISQTEVIIRFAFQTSITVLCIACPCSLGLATPTAVMVGTGVAAQNGILIKGGKPLEMAHKIKTVMFDKTGTITHGVPRVMRVLLLGDVATLPLRKVLAVVGTAEASSEHPLGVAVTKYCKEELGTETLGYCTDFQAVPGCGIGCKVSNVEGILAHSERPLSAPASHLNEAGSLPAEKDAVPQTFSVLIGNREWLRRNGLTISSDVSDAMTDHEMKGQTAILVAIDGVLCGMIAIADAVKQEAALAVHTLQSMGVDVVLITGDNRKTARAIATQVGINKVFAEVLPSHKVAKVQELQNKGKKVAMVGDGVNDSPALAQADMGVAIGTGTDVAIEAADVVLIRNDLLDVVASIHLSKRTVRRIRINLVLALIYNLVGIPIAAGVFMPIGIVLQPWMGSAAMAASSVSVVLSSLQLKCYKKPDLERYEAQAHGHMKPLTASQVSVHIGMDDRWRDSPRATPWDQVSYVSQVSLSSLTSDKPSRHSAAADDDGDKWSLLLNGRDEEQYI

Variants of: B1
Settings: with comd1_human COMMD1, Q8N668
comd1_human COMMD1, Q8N668, sequence (Q8N668 whole entry): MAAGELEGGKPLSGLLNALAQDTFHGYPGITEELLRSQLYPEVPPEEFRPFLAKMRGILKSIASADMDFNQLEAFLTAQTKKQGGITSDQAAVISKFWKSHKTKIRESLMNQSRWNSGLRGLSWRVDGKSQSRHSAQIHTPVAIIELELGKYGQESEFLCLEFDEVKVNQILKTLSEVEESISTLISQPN

Variant | effect of a mutation on the interaction
G515V | increasing interaction strength
G85V | increasing interaction strength
G170V | increasing interaction strength
G284V | increasing interaction strength
N41S | increasing interaction strength
G386V | increasing interaction strength
L492S | with no effect
A486S | increasing interaction strength

More lines, now with the values ahead:

effect of a mutation on the interaction | Variant
increasing interaction strength | R616W
increasing interaction strength | R616Q
increasing interaction strength | Y532H
decreasing interaction strength | G626A
with no effect | L641S
increasing interaction strength | G591D
decreasing interaction strength | A604P
decreasing interaction strength | D642H
increasing interaction strength | E541K
decreasing interaction strength | M645R
